Where “and” joins values, the source holds several entries; their conditions need not be identical. Identical values can stand only once.
How the values were obtained:
[1] = In vitro PAI of GNRs in agar drops; conditions: agar drop, no IL
Text: (§1) US and PAI of GNRs@Chit and GNRs@Chit-Iso4: High-resolution US and PA imaging have been acquired using the Vevo LAZR-X platform (FUJIFILM VisualSonics, Inc., Toronto, ON, Canada). The imaging platform includes a high frequency US system (Vevo 3100) combined with an Nd:YAG nano-second pulsed laser with repetition rate of 20 Hz. The linear US transducer array Mx 550D consists of 256 elements with a nominal center frequency of 40 MHz (25-55 MHz bandwidth) and a spatial resolution of 40 μm with a maximum imaging depth of 15 mm. Light from the laser is delivered to the tissue through optical fibers mounted on either side of the transducer. During volumetric US-PA acquisitions, a stepper motor is used for the linear translation of the US transducer and optical fibers along the sample. The linear stepper motor moves in steps of a minimum of 0:1 mm while capturing 2-D parallel images, for a maximum 3D range distance of 6.4 cm.
(§2) 3D B mode scan was carried out for in vitro (drop) and in vivo (mouse bladder) studies. […]
In vitro PAI of GNRs was carried out as follows: GNRs (30 μl in DPBS with calcium and magnesium) were mixed with a 1% agar solution (30 μl), the mixture was then poured on Parafilm® M (Sigma) and left to solidify in a humidified chamber (FIG. 15). […] PA and US data have been analyzed using VevoLab 3.2.5 software (FIG. 15).

[2] = In vivo PAI of murine bladder after intravesical instillation; set-up: species or system mice; conditions: three cycles of manual handling, two washes
Text: as §1, §2

[3] = Physicochemical characterization of GNRs (VIS-NIR, TEM, zeta potential)
Description: Characterization of the physicochemical properties of GNRs@CTAB, GNRs@Chit and functionalized GNRs@Chit-Iso4: Gold concentration was determined by flame atomic absorption spectroscopy (FAAS) using a SpectraAA 100 Varian spectrometer (Agilent Technologies, Santa Clara, USA). Gold nanorods (100 μL) were dissolved in aqua regia (3 mL) and diluted to 10 mL with ultrapure water prior to analysis. For the calibration of the FAAS analysis, Au standard solutions at 1, 2, 5 and 10 mg/L were prepared by diluting the appropriate amounts of […] TraceCERT® solutions in 30% aqua regia.
VIS-NIR absorption spectra (range 400-1100 nm) were recorded using a Cary 3500 UV-VIS-NIR modular spectrometer (Agilent Technologies, Santa Clara, USA) using a 1 cm path-length plastic cuvette.
Transmission Electron Microscopy (TEM) was performed using a TEM/STEM FEI TECNAI F20 operating at 200 keV equipped with a probe for energy-dispersing x-ray spectroscopy (EDX), selected-area electron diffraction (SAED) and High Angle Annular Dark Field Detector (HAADF). Before the analysis, samples were placed on a continuous-carbon film, supported on a copper grid and dried at 120° C.
Zeta potential measurements were performed using a Zetasizer-nano-S (Malvern Panalytical, Malvern, UK) in DTS1060C-Clear disposable zeta cells, at 25° C.

[4] = system: MB49-Luc derived orthotopic bladder tumor; experiment: PAI of orthotopic MB49-Luc bladder tumor after intravesical instillation; assay type: in vivo, mice; conditions: for detection of lesions undetectable by US imaging: small orthotopic tumor
Description: Murine orthotopic bladder tumor model: All procedures and studies involving mice were approved by the Institutional Animal Care and Use Committee of San Raffaele Scientific Institute and performed according to the prescribed guidelines (IACUC, approval number 942). Female albino C57BL/6J mice (9 weeks old, weighing about 20 g, Charles River Laboratories, Italy) were anesthetized with ketamine (80 mg/kg) and xylazine (15 mg/kg) and kept in dorsal position. Using a 24-gauge catheter, the bladder of each mouse was emptied and instilled with or without MB49-Luc cells (10^5 cells/100 μl in DPBS). Thirty minutes later the catheter was removed, and mice were allowed to recover and returned to their cage. Tumor growth was monitored by measuring the tumor volume through US imaging (see below) and in vivo bioluminescent quantification after administration of luciferin (15 mg/kg, intra peritoneum) using the non-invasive In Vivo Imaging System (IVIS, PerkinElmer, USA).
as §1
3D B mode scan was carried out for in vitro (drop) and in vivo (mouse bladder) studies. The photoacoustic spectra between 680 nm and 970 nm were scanned with a step size of 5 nm; for the in vivo studies (murine bladder) the 3D multispectral PA scans were acquired selecting PA spectral curve of tissue components melanin, deoxy- and oxy-generated blood, and GNRs; the processed wavelengths (680; 722; 764; 810; 924; 970 nm) were automatically selected from the spectral curve used to spectrally unmix the GNRs signal from other endogenous tissue chromophore signals such as oxy, deoxy hemoglobin. The algorithm reported by Luke et al was used to select these wavelengths which is ideal for separating the signal from GNRs from other endogenous absorbers.
Data analyses were conducted using the Vevo® Lab software; volumes of interest were obtained by manually drawing Volumes of Interest (VOIs) on 3D B-mode images. GNRs, melanin, oxy- and deoxy-hemoglobin content were estimated through spectral unmixing analyses of the spectroscopic data.

5637 cells = experiment: Cell adhesion assay on coated microtiter plates; assay type: cell-based, human; conditions: crystal violet stain
Description: (§3) The plates were washed and blocked with 2% BSA in DMEM or RPMI-1640 (200 μl/well, 1 h). MB49-Luc and 5637 cells were detached with DPBS-E, washed twice with DPBS, and suspended in DMEM or RPMI-1640 containing 0.1% BSA (binding buffer-3), and added to the coated-plates (1.5×10^5 cells/well, 100 μl). After 1-2 h of incubation at 37° C., 5% CO2, the plates were washed with binding buffer-3. Adherent cells were fixed and stained with 0.5% crystal violet in 20% methanol. After washing with water, the dye was extracted from cells using a 10% acetic acid solution (140 μl/well) and the absorbance at 570 nm was measured using a microplate reader.

[5] = Stability of GNRs in human urine; assay type: physicochemical; conditions: 37° C.
Description: Stability of GNRs@Chit and GNRs@Chit-Iso4 in human urine: The stability of GNRs@Chit-Iso4 in human urine was assessed by diluting the GNR solution (0.725 mM of Au in 10 ml of water) with human urine samples (10 ml) collected from 10 healthy adult volunteers (4 males and 6 females) and placed under stirring in a water bath at 37° C. At various time points, 1 mL of the mixture was withdrawn, diluted in 10 mL of cold water (+4° C.) and subjected to VIS-NIR. A urine solution (50% in water) was used as the blank reference in the spectrometric analysis.

MB49-Luc cells = experiment: Cell adhesion assay on coated microtiter plates; assay type: cell-based, murine
Description: as §3

GNRs@Chit-Iso4: gold nanorods coated with thiolated chitosan, coupled via NHS-PEG12-maleimide crosslinker to the Iso4 peptide
behaviour under pulsed laser with light attenuators without IL [1]: underwent reshaping
binding in healthy mice [2]: no binding
GNRs length ([3]; TEM): 90.2±7.2 nm and 90.2 ± 7.2d nm
GNRs width ([3]; TEM): 24.9±2.6 nm and 24.9 ± 2.6d nm
λmax (wavelength of max absorbance, longitudinal-LSPR peak) ([3]; VIS-NIR): 802 nm
Aspect Ratio ([3]; calculated as the length/width ratio): 3.62±0.67 and 3.6 ± 0.6
PA signal at tumor without manual handling of urine ([4]; 3 nmol Au, two washing steps, tumor on the left side): lack of PA signal
volume of small tumor detected ([4]; 4 days after MB49-Luc cell implantation): 7.9 mm^3
detection of lesions undetectable by US imaging [4]: can reveal the presence of lesions undetectable with US imaging and bioluminescence
detection of lesions undetectable by US imaging ([4]; listed as GNR@Chit-Iso4): a neoplastic region in the upper region of the bladder that was undetectable by US scan
binding in tumor bearing mice by PAI ([4]; well-established tumor, three cycles of manual handling, two washes): to the three well-established neoplastic lesions at the bottom, lateral side and upper part of the bladder, and not present in non-neoplastic tissue
cell adhesion to solid phase coated with the substance (5637 cells): induced cell adhesion and spreading
incubation time in urine without dramatic loss of optical properties in the NIR [5]: at least 2 h
reduction of the absorbance at ~800 nm ([5]; human urine, first 40 minutes): 14%
further reduction of the absorbance at ~800 nm ([5]; human urine, following 80 minutes): 7%
change in the shape of the LSPR spectrum ([5]; human urine, up to 2 h): No significant change
increase of cell adhesion caused by urine (MB49-Luc cells; MB49-Luc cells in DMEM medium containing 25-75% urine): ~20%
cell adhesion to solid phase coated with the substance (MB49-Luc cells; MB49-Luc cells, crystal violet stain): induced cell adhesion and spreading
